Measurements taken from article PMC12624140, “A conserved chronobiological complex times C. elegans development” (The EMBO Journal, 2025).
One block for each binder: values may come before it.

Columns and labels:
[1] = target: T1, human CK1δ kinase domain (CK1δ ΔC, residues 1–317) (human, UniProt P48730 1-317); assay: pull-down; magnetic streptavidin beads hold biotinylated LIN-42 CK1BD + Tail WT or mutants (5 µM), with and without CK1δ ΔC (5 µM); conditions: both partners purified
T1 construct: N-terminal vector artifact left after TEV cleavage; human casein kinase 1 delta, catalytic domain, residues 1-317; also called CK1δ∆C; source: E. coli Rosetta (DE3), purified (Ni-NTA, TEV cleavage, GST column, SEC); not shown: His-GST, N-terminal, cleaved
T1 sequence: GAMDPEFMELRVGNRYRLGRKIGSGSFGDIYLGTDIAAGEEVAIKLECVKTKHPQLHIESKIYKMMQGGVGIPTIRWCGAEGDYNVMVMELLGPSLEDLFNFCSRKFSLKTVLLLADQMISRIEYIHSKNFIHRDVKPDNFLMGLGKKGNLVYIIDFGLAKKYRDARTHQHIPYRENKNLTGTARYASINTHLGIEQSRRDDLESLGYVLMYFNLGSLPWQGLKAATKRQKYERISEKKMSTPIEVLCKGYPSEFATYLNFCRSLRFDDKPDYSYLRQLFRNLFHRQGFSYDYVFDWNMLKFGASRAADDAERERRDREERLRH

[2] = target: T2, biotinylated human CK1δ kinase domain (CK1δ ΔC, residues 1–317) (human, UniProt P48730 1-317, biotin on the N-terminus (Sortase A reaction of biotin-LPETGG with the N-terminal G of GAMDPEF)); assay: BLI; biotinylated CK1δ ΔC immobilised on streptavidin biosensors, LIN-42 fragments titrated; SEC buffer (50 mM Tris pH 7.5, 200 mM NaCl, 1 mM EDTA, 5% glycerol, 1 mM TCEP, 0.05% Tween-20) with 7.5 mM BSA as printed; Octet-RED96e; kinetic analysis, 2:1 heterogeneous ligand binding model, global fit; conditions: both partners purified
T2 construct: N-terminal vector artifact left after TEV cleavage; its first G is joined to the sortase peptide; human casein kinase 1 delta, catalytic domain, residues 1-317; After the sortase reaction the N-terminus should read biotin-LPET-GAMDPEF-; also called biotinylated CK1; not shown: His-GST, N-terminal, cleaved; biotin-LPETGG sortase peptide, N-terminal, kept
T2 sequence: T1 sequence

B4: biotinylated LIN-42 CK1BD-∆A + Tail (residues 434–598) (domain or fragment, C. elegans)
chain: GAMDPEFDEKKYPPQTPLTREALTLHTKRFEDEYKDTWCRRLKRLSDDVPSSPPAKRTTPIHWTSSSQNHYRTMAPAPPPPPGKNYQITYTPLDDLTDQKSTNTKSDVENVAYPISGSKFSTPMRLSIDGLLPRGATSTGGASPTSGTNSPPVFPKTSSSSSLLMLRDSQN
modifications: biotin on the N-terminus (Sortase A reaction of biotin-LPETGG with the N-terminal G of GAMDPEF)
notes: N-terminal vector artifact left after TEV cleavage; its first G is joined to the sortase peptide; LIN-42, C. elegans, residues 434-598: CK1BD + Tail without the SYQ/CK1BD-A motif; also called biotinylated CK1BD + Tail mutant, SYQ/CK1BD-A deleted; not shown: His-NusA, N-terminal, cleaved; biotin-LPETGG sortase peptide, N-terminal, kept
binding result [1]: binds

B5: LIN-42 CK1BD-∆A + Tail (residues 434–598) (domain or fragment, C. elegans)
chain: B4 chain
notes: N-terminal vector artifact left after TEV cleavage; LIN-42, C. elegans, residues 434-598: CK1BD + Tail without the SYQ/CK1BD-A motif; source: E. coli Rosetta (DE3), purified (Ni-NTA, TEV cleavage, second Ni-NTA, SEC); not shown: His-NusA, N-terminal, cleaved
Kd [2]: ~3000 nM

Other lines, results leading:

binding result [1]: binds
B1: biotinylated LIN-42 CK1BD + Tail (residues 402–598), wild type (domain or fragment, C. elegans)
chain: GAMDPEFLSYTQINCLENVHRLLKSQSRPESPAKQDEPFDEKKYPPQTPLTREALTLHTKRFEDEYKDTWCRRLKRLSDDVPSSPPAKRTTPIHWTSSSQNHYRTMAPAPPPPPGKNYQITYTPLDDLTDQKSTNTKSDVENVAYPISGSKFSTPMRLSIDGLLPRGATSTGGASPTSGTNSPPVFPKTSSSSSLLMLRDSQN
modifications: biotin on the N-terminus (Sortase A reaction of biotin-LPETGG with the N-terminal G of GAMDPEF)
notes: N-terminal vector artifact left after TEV cleavage; its first G is joined to the sortase peptide; LIN-42, C. elegans, residues 402-598 (CK1BD and C-terminal tail); After the sortase reaction the N-terminus should read biotin-LPET-GAMDPEF-; also called biotinylated LIN-42 CK1BD + Tail WT; wild-type LIN-42 protein; not shown: His-NusA, N-terminal, cleaved; biotin-LPETGG sortase peptide, N-terminal, …

Kd [2]: 309 nM
B2: LIN-42 CK1BD + Tail (residues 402–598) (domain or fragment, C. elegans)
chain: B1 chain
notes: N-terminal vector artifact left after TEV cleavage; LIN-42, C. elegans, residues 402-598 (CK1BD and C-terminal tail); numbers fit the longest isoform of 598 amino acids; also called wild-type LIN-42 CK1BD + Tail; source: E. coli Rosetta (DE3), purified (Ni-NTA, TEV cleavage, second Ni-NTA, SEC); not shown: His-NusA, N-terminal, cleaved

Kd [2]: 303 nM
B3: LIN-42 CK1BD (residues 402–475) (domain or fragment, C. elegans)
chain: GAMDPEFLSYTQINCLENVHRLLKSQSRPESPAKQDEPFDEKKYPPQTPLTREALTLHTKRFEDEYKDTWCRRLKRLSDDV
notes: N-terminal vector artifact left after TEV cleavage; LIN-42, C. elegans, residues 402-475 (SYQ/CK1BD-A and LT/CK1BD-B); numbers fit the longest isoform of 598 amino acids; also called truncated fragment of LIN-42 lacking the C-terminal tail; source: E. coli Rosetta (DE3), purified (Ni-NTA, TEV cleavage, second Ni-NTA, SEC); not shown: His-NusA, N-terminal, cleaved
